Experimental data taken from publication PMC7102971 (Nucleic Acids Research, 2020).

Target: the molecule itself
Test: crystal structure

B1: SFPQ-276-535 (dimerization domain of human SFPQ) (domain or fragment)
chain: EGFKANLSLLRRPGEKTYTQRCRLFVGNLPADITEDEFKRLFAKYGEPGEVFINKGKGFGFIKLESRALAEIAKAELDDTPMRGRQLRVRFATHAAALSVRNLSPYVSNELLEEAFSQFGPIERAVVIVDDRGRSTGKGIVEFASKPAARKAFERCSEGVFLLTTTPRPVIVEPLEQLDDEDGLPEKLAQKNPMYQKERETPPRFAQHGTFEYEYSQRWKSLDEMEKQQREQVEKNMKDAKDKLESEMEDAYHEHQANLL
- binding result: binds
